Data taken from publication PMC7612964.

Biological target: Flag-NLS-Actin wt
Experiment: proximity ligation

With “endogenous BRM (from UniProt P51531 1-1590) (natural protein)” the % PLA-positive cells (spread cells, high mechanical inputs) was 94.7%.
